Experimental findings from patent EP4806918A1 (Nanjing Probio Biotech Co., Ltd., dated 2026) are described below.

To fix the notation:
B1: AHP30005 fully human antibody (antibody, IgG1, V domains shown, not shown: a dimerising Fc or GST)
VH: QVQLVDSGGGLVQAGGSLSVSCAVSGRTALTYAVGWFRQAPGKERDFVAGINWSGSMTNYADSVKGRFTISRDNQKNTVYLQMNSLKPEDTAVYYCAATRTAITMPPQRDGVDYWGKGTTVTVSS
VL: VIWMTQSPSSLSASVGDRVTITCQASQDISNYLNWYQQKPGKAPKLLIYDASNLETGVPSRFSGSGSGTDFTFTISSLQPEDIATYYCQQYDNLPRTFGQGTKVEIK
B2: AHP30019 fully human antibody (antibody, IgG1, V domains shown, not shown: a dimerising Fc or GST)
VH: QVQLVQSGGGLVQPGGSLRLSCAGSGSSFSLAVMGWYRQAPGRQRELVGIISSAAGTNYADSVKGRFTISRDDAKNTLYLQMNSLTAEDTAVYYCWRGAVPGDPYGRWGQGTLVTVSS
VL: EIVLTQSPLSLPVTLGQPASISCRSSQSLVHSDGNTYLNWFQQRPGQPPRRLIYEVSNRDSGVPDRFSGSGSGTDFTLKISRVEAEDVGVYYCMQGTHWPWTFGQGTKVEIK
B3: AHP31319 fully human antibody (antibody, IgG1, V domains shown, not shown: a dimerising Fc or GST)
VH: B2 VH with Q1E, L113T
VL: EIVMTQSPGTLSLSPGEGATLSCRASQSVSNNYLAWYQQKHGQAPRLLIYGASSRATGIPDRFSGSGSGTDFTLTINRLEPEDFALYYCQQYGNSPGTFGQGTKVDIK
B4: Avelumab (antibody, V domains shown)
VH: EVQLLESGGGLVQPGGSLRLSCAASGFTFSSYIMMWVRQAPGKGLEWVSSIYPSGGITFYADTVKGRFTISRDNSKNTLYLQMNSLRAEDTAVYYCARIKLGTVTTVDYWGQGTLVTVSS
VL: QSALTQPASVSGSPGQSITISCTGTSSDVGGYNYVSWYQQHPGKAPKLMIYDVSNRPSGVSNRFSGSKSGNTASLTISGLQAEDEADYYCSSYTSSSTRVFGTGTKVTVLG

Broadly, the EC50 is the concentration needed to bring the measured effect to its halfway point. Usually Kd stands for the free concentration of one partner at which half of the binding sites on the other are occupied at equilibrium, for simple one-to-one binding. Broadly, the koff is a measure of how fast the partners let go of each other. For orientation: kon means a measure of how fast the partners come together. As usually defined, the IC50 is the concentration that gives 50% inhibition.

Residue numbers refer to the chain shown, from its start.

T3 sequence (G7PSE7 entry or part of it, one chain of several): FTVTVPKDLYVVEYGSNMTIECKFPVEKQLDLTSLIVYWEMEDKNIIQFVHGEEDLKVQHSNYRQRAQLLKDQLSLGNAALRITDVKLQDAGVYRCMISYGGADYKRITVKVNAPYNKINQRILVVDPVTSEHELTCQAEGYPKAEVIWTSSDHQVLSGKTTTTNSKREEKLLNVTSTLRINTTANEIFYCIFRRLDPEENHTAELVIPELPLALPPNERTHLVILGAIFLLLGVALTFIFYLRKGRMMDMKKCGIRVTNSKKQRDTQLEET
T1 sequence (Q9NZQ7 19-290): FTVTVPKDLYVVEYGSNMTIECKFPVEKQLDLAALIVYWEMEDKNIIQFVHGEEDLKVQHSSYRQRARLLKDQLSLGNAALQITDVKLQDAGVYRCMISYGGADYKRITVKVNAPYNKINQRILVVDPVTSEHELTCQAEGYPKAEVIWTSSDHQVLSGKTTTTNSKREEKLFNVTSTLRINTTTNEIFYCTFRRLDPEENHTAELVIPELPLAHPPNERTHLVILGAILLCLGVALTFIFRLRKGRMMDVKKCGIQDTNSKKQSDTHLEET
T2 sequence (Q9EP73 19-290, one chain of several): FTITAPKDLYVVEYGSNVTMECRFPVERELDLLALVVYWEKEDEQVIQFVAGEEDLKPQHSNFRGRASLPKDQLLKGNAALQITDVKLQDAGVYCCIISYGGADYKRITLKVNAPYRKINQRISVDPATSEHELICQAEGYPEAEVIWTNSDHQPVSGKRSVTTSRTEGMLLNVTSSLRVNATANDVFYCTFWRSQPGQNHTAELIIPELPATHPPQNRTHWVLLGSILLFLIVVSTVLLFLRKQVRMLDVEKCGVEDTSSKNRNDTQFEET
T4 sequence (Q9NZQ7 19-238 limits assumed, one chain of several): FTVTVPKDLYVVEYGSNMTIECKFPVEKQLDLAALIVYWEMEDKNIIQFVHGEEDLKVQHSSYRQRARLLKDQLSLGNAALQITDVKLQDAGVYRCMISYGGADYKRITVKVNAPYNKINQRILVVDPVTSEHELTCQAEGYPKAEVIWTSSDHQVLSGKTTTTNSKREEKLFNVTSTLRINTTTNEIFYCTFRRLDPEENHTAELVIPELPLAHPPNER

One test concerns the target T1, human PD-L1 on a stable cell line (Probio, RD00868) (human, UniProt Q9NZQ7 19-290).
T1 construct: whole, on cells; also called cells expressing human PD-L1
As to the kind of experiment: FACS on stable cell line expressing human PD-L1.
Molecule B1 returned an EC50 of 0.193 nM.

In the case of B2, a half-maximal response (EC50) required 15.9 nM.

B3 came in with a 50% effective concentration (EC50) of 0.977 nM.

Another test concerns the target T2, mouse PD-L1 on a stable cell line (Probio, M00567) (mouse, UniProt Q9EP73 19-290).
T2 construct: whole, on cells; also called cells expressing mouse PD-L1
Briefly: FACS on stable cell line expressing mouse PD-L1.
B1 gave a concentration giving a half-maximal response (EC50) of 0.184 nM.

Turning to B2, the 50% effective concentration (EC50) was found to be 31.8 nM.

Regarding B3, the EC50 was 0.746 nM.

Another test has as its target T3, cynomolgus monkey PD-L1 on a stable cell line (Probio, M00573) (cynomolgus monkey, UniProt G7PSE7 19-290).
T3 construct: whole, on cells; also called cells expressing monkey PD-L1
Briefly: FACS on stable cell line expressing cynomolgus monkey PD-L1.
Molecule B1 had a concentration giving a half-maximal response (EC50) of 0.725 nM.

B4 came in with a concentration for a half-maximal effect (EC50) of 0.894 nM.

The molecule B2 had an EC50 of 43.5 nM.

Molecule B3 came in with a concentration giving a half-maximal response (EC50) of 1.34 nM.

The next test addresses T4, recombinant human PD-L1-His protein (GenScript, Z03425) (human, UniProt Q9NZQ7 19-238).
T4 construct: Bought protein; also called recombinant human PD-L1 protein; human PD-L1 antigen protein; not shown: His tag
As to the kind of experiment: indirect ELISA, plate coated with recombinant human PD-L1-His.
As for B1, the EC50 stood at 0.275 nM.

B2: the EC50 worked out at 4.26 nM.

Take B3: the EC50 came out at 0.173 nM.

A further test has as its target T4, recombinant human PD-L1-His protein …. Briefly: SPR, Biacore 8K, antibody Fc-captured, human PD-L1-His as analyte. On the technique in general: SPR reads the build-up and loss of mass on a sensor chip optically.
For the molecule B1, the Kd was 0.305 nM, the off-rate constant (koff) is 0.000425 s⁻¹ and the on-rate constant (kon) came to 1.39e+06 M⁻¹ s⁻¹.

With B2, the Kd is 50.3 nM, the off-rate constant (koff) was 0.00146 s⁻¹ and the kon came out at 29000 M⁻¹ s⁻¹.

On to B3, for which the Kd turned out to be 5.08 nM, the koff turned out to be 0.000848 s⁻¹ and the on-rate (kon) turned out to be 167000 M⁻¹ s⁻¹.

The next test shares this target. Briefly: competition ELISA on coated human PD-L1-His; row antibody titrated, competitor biotinylated Avelumab detected. (In an ELISA, binding on a coated surface is turned into a signal by an enzyme label.)
As to B1, the IC50 is 1.34 nM.

Regarding B3, the IC50 was determined as 8.97 nM.

A further test has the same target. As to the kind of experiment: competition ELISA on coated human PD-L1-His; row antibody titrated, competitor biotinylated Tecentriq detected.
Turning to B1, the IC50 stood at 2.81 nM.

For B2, the half-maximal inhibitory concentration (IC50) amounted to 0.972 nM.

With B3, the IC50 was determined as 96.1 nM.
